Positions count from the first letter of the chain named. Blank lines part the entries; values can stand above or below the binder they belong to. Starred links: 1 amine or outer side, 2 acyl side, 3 side chain; linkers in the order of their positions; H or OH if unused. Non-standard residues stand in square brackets, D forms with d. Groups on a side chain read outwards from the residue. No end group written: not given here. *: point of attachment. C20 diacid = O=C(O)CCCCCCCCCCCCCCCCCCC(=O)*; γGlu = O=C(O)[C@H](CCC(=O)[*:2])N[*:1]; εLys = N[C@@H](CCCCN[*:1])C(=O)[*:2]; Aib = CC(C)(N)C(=O)O
Assays:
Assay in all cases: cell-based or functional assay
NPY2 receptor = molecular target: T1, NPY2 receptor (human (printed as hNPY2R), UniProt P49146 1-381)
T1 sequence (looked up): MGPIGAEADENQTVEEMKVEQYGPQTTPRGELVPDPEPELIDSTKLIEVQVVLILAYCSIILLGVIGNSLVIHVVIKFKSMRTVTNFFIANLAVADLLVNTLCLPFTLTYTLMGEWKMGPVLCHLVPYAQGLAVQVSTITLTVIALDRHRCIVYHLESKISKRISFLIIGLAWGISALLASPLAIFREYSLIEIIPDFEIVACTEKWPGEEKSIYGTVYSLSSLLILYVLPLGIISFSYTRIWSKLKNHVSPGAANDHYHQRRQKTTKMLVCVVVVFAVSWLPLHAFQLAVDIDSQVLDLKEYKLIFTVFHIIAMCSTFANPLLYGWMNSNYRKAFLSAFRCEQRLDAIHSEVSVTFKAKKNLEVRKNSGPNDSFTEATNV

GLP-1 receptor = GLP-1 receptor (human (printed as hGLP1R), UniProt P43220 24-463)
GIP receptor = molecular target: T2, GIP receptor (human (printed as hGIPR), UniProt P48546 22-466)
T2 sequence (looked up): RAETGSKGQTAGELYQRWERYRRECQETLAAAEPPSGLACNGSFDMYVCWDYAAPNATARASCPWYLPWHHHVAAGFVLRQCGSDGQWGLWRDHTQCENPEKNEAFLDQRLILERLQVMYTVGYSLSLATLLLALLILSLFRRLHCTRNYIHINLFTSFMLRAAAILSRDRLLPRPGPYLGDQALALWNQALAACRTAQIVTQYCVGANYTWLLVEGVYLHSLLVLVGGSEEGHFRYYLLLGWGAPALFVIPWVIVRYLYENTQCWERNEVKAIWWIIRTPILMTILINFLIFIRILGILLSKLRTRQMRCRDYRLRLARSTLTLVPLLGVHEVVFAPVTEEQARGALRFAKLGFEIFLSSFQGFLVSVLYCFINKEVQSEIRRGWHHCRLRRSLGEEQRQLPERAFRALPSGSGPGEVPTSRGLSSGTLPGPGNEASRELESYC

B1: Compound 181 (peptide)
peptide: Y[Aib]EGTFTSDYSI[Aib]LEEQAQ[Aib]AFVEWLIK([εLys-γGlu-γGlu-γGlu-γGlu-γGlu-C20 diacid])GGPSSGASLRHYYNWLTRQRY-NH2
modifications: also: TFA salt
EC50 hNPY2R 0.5% hP (CreLuc) (NPY2 receptor): 16.5 nM
EC50 hNPY2R 100% hP (CreLuc) (NPY2 receptor): 102 nM
EC50 hGLP1R 0.5% hP (CreLuc) (GLP-1 receptor): 0.14 nM
EC50 hGLP1R 100% hP (CreLuc) (GLP-1 receptor): 3.23 nM
EC50 hGIPR 0.5% hP (CreLuc) (GIP receptor): 0.16 nM
EC50 hGIPR 100% hP (CreLuc) (GIP receptor): 1.23 nM

B5: Compound 190 (peptide)
peptide: YXEGTFTSDYSIXLEKQAQXAFVEWLIKGGPSSGASLRHYYNWRTRQRY
modifications: Aib at 2, 13, 20; D-Arg at 44; K28 side chain carries C20DA-gGlu-gGlu-gGlu-gGlu-Glu-gGlu-eLys (so in the source); C-terminal amide
EC50 hNPY2R 0.5% hP (CreLuc) (NPY2 receptor): > 100 nM
EC50 hNPY2R 100% hP (CreLuc) (NPY2 receptor): > 1000 nM
EC50 hGLP1R 0.5% hP (CreLuc) (GLP-1 receptor): 0.1 nM
EC50 hGLP1R 100% hP (CreLuc) (GLP-1 receptor): 1.09 nM
EC50 hGIPR 0.5% hP (CreLuc) (GIP receptor): 0.13 nM
EC50 hGIPR 100% hP (CreLuc) (GIP receptor): 1.18 nM

B6: Compound 197 (peptide)
peptide: B5 peptide with S36L, R44L
modifications: Aib at 2, 13, 20; K28 side chain carries C20DA-gGlu-gGlu-gGlu-gGlu-gGlu-gGlu-eLys; C-terminal amide
EC50 hNPY2R 0.5% hP (CreLuc) (NPY2 receptor): 42.6 nM
EC50 hNPY2R 100% hP (CreLuc) (NPY2 receptor): 158 nM
EC50 hGLP1R 0.5% hP (CreLuc) (GLP-1 receptor): 0.31 nM
EC50 hGLP1R 100% hP (CreLuc) (GLP-1 receptor): 6.06 nM
EC50 hGIPR 0.5% hP (CreLuc) (GIP receptor): 0.43 nM
EC50 hGIPR 100% hP (CreLuc) (GIP receptor): 3.61 nM

B8: Compound 195 (peptide)
peptide: B5 peptide with W43L, R44L
modifications: Aib at 2, 13, 20; K28 side chain carries C20DA-gGlu-gGlu-gGlu-gGlu-gGlu-gGlu-eLys; C-terminal amide
EC50 hNPY2R 0.5% hP (CreLuc) (NPY2 receptor): 26.1 nM
EC50 hNPY2R 100% hP (CreLuc) (NPY2 receptor): 137 nM
EC50 hGLP1R 0.5% hP (CreLuc) (GLP-1 receptor): 0.13 nM
EC50 hGLP1R 100% hP (CreLuc) (GLP-1 receptor): 1.9 nM
EC50 hGIPR 0.5% hP (CreLuc) (GIP receptor): 0.25 nM
EC50 hGIPR 100% hP (CreLuc) (GIP receptor): 1.42 nM

B9: Compound 196 (peptide)
peptide: B5 peptide with E24Q, S32E, S33E, R44L
modifications: Aib at 2, 13, 20; K28 side chain carries C18DA-E-E-E-E-E-E-eLys (SEQ ID NO: 643); C-terminal amide
EC50 hNPY2R 0.5% hP (CreLuc) (NPY2 receptor): 25.2 nM
EC50 hNPY2R 100% hP (CreLuc) (NPY2 receptor): 152 nM
EC50 hGLP1R 0.5% hP (CreLuc) (GLP-1 receptor): 0.2 nM
EC50 hGLP1R 100% hP (CreLuc) (GLP-1 receptor): 13.6 nM
EC50 hGIPR 0.5% hP (CreLuc) (GIP receptor): 0.25 nM
EC50 hGIPR 100% hP (CreLuc) (GIP receptor): 3.68 nM

Results, then the binder that gave them:

EC50 hNPY2R 0.5% hP (CreLuc) (NPY2 receptor): 70.4 nM
EC50 hNPY2R 100% hP (CreLuc) (NPY2 receptor): 256 nM
EC50 hGLP1R 0.5% hP (CreLuc) (GLP-1 receptor): 0.13 nM
EC50 hGLP1R 100% hP (CreLuc) (GLP-1 receptor): 2.73 nM
EC50 hGIPR 0.5% hP (CreLuc) (GIP receptor): 0.21 nM
EC50 hGIPR 100% hP (CreLuc) (GIP receptor): 1.39 nM
B2: Compound 182 (peptide)
peptide: B5 peptide with H39X, R44L
modifications: Aib at 2, 13, 20, 39; K28 side chain carries C20DA-gGlu-gGlu-gGlu-gGlu-gGlu-gGlu-eLys; C-terminal amide

EC50 hNPY2R 0.5% hP (CreLuc) (NPY2 receptor): > 99.9 nM
EC50 hNPY2R 100% hP (CreLuc) (NPY2 receptor): 904 nM
EC50 hGLP1R 0.5% hP (CreLuc) (GLP-1 receptor): 0.11 nM
EC50 hGLP1R 100% hP (CreLuc) (GLP-1 receptor): 1.25 nM
EC50 hGIPR 0.5% hP (CreLuc) (GIP receptor): 0.11 nM
EC50 hGIPR 100% hP (CreLuc) (GIP receptor): 0.77 nM
B3: Compound 186 (peptide)
peptide: B5 peptide with E24Q, S33E, R44L, Q47X
modifications: Aib at 2, 13, 20; bHGln (beta-homo-L-glutamine) at 47; K28 side chain carries C20DA-gGlu-gGlu-gGlu-gGlu-gGlu-gGlu-eLys; C-terminal amide

EC50 hNPY2R 0.5% hP (CreLuc) (NPY2 receptor): 46 nM
EC50 hNPY2R 100% hP (CreLuc) (NPY2 receptor): 125 nM
EC50 hGLP1R 0.5% hP (CreLuc) (GLP-1 receptor): 0.18 nM
EC50 hGLP1R 100% hP (CreLuc) (GLP-1 receptor): 1.87 nM
EC50 hGIPR 0.5% hP (CreLuc) (GIP receptor): 0.28 nM
EC50 hGIPR 100% hP (CreLuc) (GIP receptor): 1.37 nM
B4: Compound 184 (peptide)
peptide: B5 peptide with Y41X, R44L
modifications: Aib at 2, 13, 20, 41; K28 side chain carries C20DA-gGlu-gGlu-gGlu-gGlu-gGlu-gGlu-eLys; C-terminal amide

EC50 hNPY2R 0.5% hP (CreLuc) (NPY2 receptor): > 99.9 nM
EC50 hNPY2R 100% hP (CreLuc) (NPY2 receptor): > 999 nM
EC50 hGLP1R 0.5% hP (CreLuc) (GLP-1 receptor): 0.17 nM
EC50 hGLP1R 100% hP (CreLuc) (GLP-1 receptor): 2.92 nM
EC50 hGIPR 0.5% hP (CreLuc) (GIP receptor): 0.23 nM
EC50 hGIPR 100% hP (CreLuc) (GIP receptor): 2 nM
B7: Compound 191 (peptide)
peptide: B5 peptide with R44L, Y49X
modifications: Aib at 2, 13, 20; Tle at 49; K28 side chain carries C20DA-gGlu-gGlu-gGlu-gGlu-gGlu-gGlu-eLys; C-terminal amide

EC50 hNPY2R 0.5% hP (CreLuc) (NPY2 receptor): 16.3 nM
EC50 hNPY2R 100% hP (CreLuc) (NPY2 receptor): 31 nM
EC50 hGLP1R 0.5% hP (CreLuc) (GLP-1 receptor): 0.28 nM
EC50 hGLP1R 100% hP (CreLuc) (GLP-1 receptor): 10.4 nM
EC50 hGIPR 0.5% hP (CreLuc) (GIP receptor): 0.49 nM
EC50 hGIPR 100% hP (CreLuc) (GIP receptor): 1.03 nM
B10: Compound 201 (peptide)
peptide: Y[Aib]EGTFTSDYSI[Aib]LEKQAQ[Aib]EFVEWLIKGGPSSGASLRHYYNWLTRQRY-NH2
modifications: not fully specified (residue 28); also: TFA salt
